The target of data set [1] is T1, neurofibromin EF fragment (1821–2818) (human, UniProt P21359-2 1821-2818).
T1 construct: neurofibromin, human, NF1 isoform 2 (NM_000267.3); residues 1821-2818; numbers count on: the 2818-residue isoform; TEV cleavage (ENLYFQ/G) probably leaves a G at the N-terminus; also called EF domain; EF(1821–2818); source: Tni-FNL insect cells (baculovirus), purified; not shown: His6, N-terminal, cleaved; MBP, N-terminal, cleaved
T1 sequence (looked up): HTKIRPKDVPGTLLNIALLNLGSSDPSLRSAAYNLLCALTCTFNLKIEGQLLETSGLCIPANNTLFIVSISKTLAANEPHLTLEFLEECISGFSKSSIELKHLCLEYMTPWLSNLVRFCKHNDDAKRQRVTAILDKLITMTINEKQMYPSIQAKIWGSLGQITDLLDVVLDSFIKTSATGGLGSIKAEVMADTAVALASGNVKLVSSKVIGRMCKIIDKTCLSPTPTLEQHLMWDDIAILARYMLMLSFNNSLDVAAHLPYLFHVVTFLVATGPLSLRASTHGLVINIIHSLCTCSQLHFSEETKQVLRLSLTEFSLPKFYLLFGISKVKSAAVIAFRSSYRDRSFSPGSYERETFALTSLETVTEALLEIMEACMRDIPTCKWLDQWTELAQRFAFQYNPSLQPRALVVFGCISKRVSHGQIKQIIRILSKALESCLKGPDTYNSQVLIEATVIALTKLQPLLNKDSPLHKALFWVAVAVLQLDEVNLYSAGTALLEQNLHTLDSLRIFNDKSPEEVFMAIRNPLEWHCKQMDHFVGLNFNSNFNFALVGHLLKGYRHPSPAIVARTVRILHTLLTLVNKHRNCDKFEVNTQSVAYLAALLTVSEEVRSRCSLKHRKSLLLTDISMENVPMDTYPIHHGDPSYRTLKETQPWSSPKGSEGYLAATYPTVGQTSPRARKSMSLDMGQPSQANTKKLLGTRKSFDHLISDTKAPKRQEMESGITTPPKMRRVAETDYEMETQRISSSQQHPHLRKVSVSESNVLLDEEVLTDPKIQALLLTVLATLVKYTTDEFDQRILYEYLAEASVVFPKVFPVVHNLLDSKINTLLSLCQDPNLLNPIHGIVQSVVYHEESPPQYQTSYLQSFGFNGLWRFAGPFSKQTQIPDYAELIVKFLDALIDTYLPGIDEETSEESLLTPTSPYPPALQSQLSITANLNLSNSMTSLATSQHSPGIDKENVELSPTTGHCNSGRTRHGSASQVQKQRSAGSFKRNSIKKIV
The experiment in a line: SEC; equimolar mixtures of two purified NF1 fragments on an analytical SEC column, fractions analysed by SDS-PAGE. Particulars: both partners purified.

Data set [2] deals with the molecule itself. The experiment in a line: AUC; sedimentation velocity of CDEF, 2.2 to 8.8 μM, 40,000 rpm, 20 °C, 300 mM NaCl, 20 mM HEPES-NaOH pH 7.3, 5 mM TCEP.
Data set [3] concerns the target T2, neurofibromin ABC fragment (2–1540) (human, UniProt P21359-2 2-1540).
T2 construct: neurofibromin, human, NF1 isoform 2 (NM_000267.3); numbers count on: the 2818-residue isoform; TEV cleavage (ENLYFQ/G) probably leaves a G at the N-terminus; also called NF1-ABC; source: Tni-FNL insect cells (baculovirus), purified; not shown: His6, N-terminal, cleaved; MBP, N-terminal, cleaved
The experiment in a line: SEC; equimolar mixtures of two purified NF1 fragments on an analytical SEC column, fractions analysed by SDS-PAGE. As to conditions: both partners purified.

T2 sequence (P21359 other isoform, or with tags, fused parts or gaps): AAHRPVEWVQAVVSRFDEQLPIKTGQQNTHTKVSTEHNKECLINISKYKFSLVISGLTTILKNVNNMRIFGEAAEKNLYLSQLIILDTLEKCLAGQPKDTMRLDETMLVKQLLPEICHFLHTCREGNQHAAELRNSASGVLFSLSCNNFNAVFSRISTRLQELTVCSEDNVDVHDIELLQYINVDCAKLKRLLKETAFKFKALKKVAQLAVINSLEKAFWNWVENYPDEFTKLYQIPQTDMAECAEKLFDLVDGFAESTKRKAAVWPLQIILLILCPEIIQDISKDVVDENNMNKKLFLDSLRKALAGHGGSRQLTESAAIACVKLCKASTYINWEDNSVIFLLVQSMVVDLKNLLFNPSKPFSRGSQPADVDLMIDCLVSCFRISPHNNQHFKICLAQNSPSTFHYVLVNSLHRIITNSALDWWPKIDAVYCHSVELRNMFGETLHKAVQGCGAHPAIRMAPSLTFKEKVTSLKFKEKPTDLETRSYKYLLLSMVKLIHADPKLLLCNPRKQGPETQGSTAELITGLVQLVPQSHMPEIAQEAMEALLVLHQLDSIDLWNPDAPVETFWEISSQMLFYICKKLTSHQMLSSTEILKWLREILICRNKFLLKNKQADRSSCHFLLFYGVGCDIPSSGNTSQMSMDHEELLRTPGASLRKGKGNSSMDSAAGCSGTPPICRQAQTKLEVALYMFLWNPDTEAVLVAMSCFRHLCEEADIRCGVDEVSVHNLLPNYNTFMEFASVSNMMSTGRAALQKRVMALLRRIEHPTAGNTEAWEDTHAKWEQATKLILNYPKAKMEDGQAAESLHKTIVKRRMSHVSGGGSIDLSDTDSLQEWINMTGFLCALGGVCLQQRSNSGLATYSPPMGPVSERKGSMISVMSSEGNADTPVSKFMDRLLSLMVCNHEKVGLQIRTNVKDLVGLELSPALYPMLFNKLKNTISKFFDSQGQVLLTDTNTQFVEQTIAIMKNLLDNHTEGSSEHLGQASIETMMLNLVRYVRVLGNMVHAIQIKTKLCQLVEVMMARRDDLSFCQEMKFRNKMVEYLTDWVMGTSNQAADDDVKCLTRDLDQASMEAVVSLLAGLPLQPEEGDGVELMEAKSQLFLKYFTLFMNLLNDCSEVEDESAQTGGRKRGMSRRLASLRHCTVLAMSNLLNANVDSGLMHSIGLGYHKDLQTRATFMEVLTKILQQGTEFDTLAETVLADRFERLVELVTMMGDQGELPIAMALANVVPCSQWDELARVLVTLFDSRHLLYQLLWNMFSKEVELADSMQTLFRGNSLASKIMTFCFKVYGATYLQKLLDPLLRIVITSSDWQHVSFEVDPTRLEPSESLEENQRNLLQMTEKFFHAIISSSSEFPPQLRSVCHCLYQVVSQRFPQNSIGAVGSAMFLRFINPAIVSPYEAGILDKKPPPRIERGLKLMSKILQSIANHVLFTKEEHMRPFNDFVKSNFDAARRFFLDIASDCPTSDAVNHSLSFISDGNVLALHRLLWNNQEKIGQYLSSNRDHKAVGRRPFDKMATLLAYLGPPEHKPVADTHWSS

B1: neurofibromin C* domain (1085–1530) (domain or fragment, human, UniProt P21359-2 1085-1530, looked up)
chain: LQPEEGDGVELMEAKSQLFLKYFTLFMNLLNDCSEVEDESAQTGGRKRGMSRRLASLRHCTVLAMSNLLNANVDSGLMHSIGLGYHKDLQTRATFMEVLTKILQQGTEFDTLAETVLADRFERLVELVTMMGDQGELPIAMALANVVPCSQWDELARVLVTLFDSRHLLYQLLWNMFSKEVELADSMQTLFRGNSLASKIMTFCFKVYGATYLQKLLDPLLRIVITSSDWQHVSFEVDPTRLEPSESLEENQRNLLQMTEKFFHAIISSSSEFPPQLRSVCHCLYQVVSQRFPQNSIGAVGSAMFLRFINPAIVSPYEAGILDKKPPPRIERGLKLMSKILQSIANHVLFTKEEHMRPFNDFVKSNFDAARRFFLDIASDCPTSDAVNHSLSFISDGNVLALHRLLWNNQEKIGQYLSSNRDHKAVGRRPFDKMATLLAYLGPPEH
notes: neurofibromin, human, NF1 isoform 2 (NM_000267.3); numbers count on: the 2818-residue isoform; TEV cleavage (ENLYFQ/G) probably leaves a G at the N-terminus; source: Tni-FNL insect cells (baculovirus), purified; not shown: His6, N-terminal, cleaved; MBP, N-terminal, cleaved
For the molecule B1, in data set [1], the binding result is on record as “binds”.

B2: neurofibromin C*D domain (1085–1816) (domain or fragment, human, UniProt P21359-2 1085-1816, looked up)
chain: LQPEEGDGVELMEAKSQLFLKYFTLFMNLLNDCSEVEDESAQTGGRKRGMSRRLASLRHCTVLAMSNLLNANVDSGLMHSIGLGYHKDLQTRATFMEVLTKILQQGTEFDTLAETVLADRFERLVELVTMMGDQGELPIAMALANVVPCSQWDELARVLVTLFDSRHLLYQLLWNMFSKEVELADSMQTLFRGNSLASKIMTFCFKVYGATYLQKLLDPLLRIVITSSDWQHVSFEVDPTRLEPSESLEENQRNLLQMTEKFFHAIISSSSEFPPQLRSVCHCLYQVVSQRFPQNSIGAVGSAMFLRFINPAIVSPYEAGILDKKPPPRIERGLKLMSKILQSIANHVLFTKEEHMRPFNDFVKSNFDAARRFFLDIASDCPTSDAVNHSLSFISDGNVLALHRLLWNNQEKIGQYLSSNRDHKAVGRRPFDKMATLLAYLGPPEHKPVADTHWSSLNLTSSKFEEFMTRHQVHEKEEFKALKTLSIFYQAGTSKAGNPIFYYVARRFKTGQINGDLLIYHVLLTLKPYYAKPYEIVVDLTHTGPSNRFKTDFLSKWFVVFPGFAYDNVSAVYIYNCNSWVREYTKYHERLLTGLKGSKRLVFIDCPGKLAEHIEHEQQKLPAATLALEEDLKVFHNALKLAHKDTKVSIKVGSTAVQVTSAERTKVLGQSVFLNDIYYASEIEEICLVDENQFTLTIANQGTPLTFMHQECEAIVQSIIHIRTRWELSQPD
notes: neurofibromin, human, NF1 isoform 2 (NM_000267.3); numbers count on: the 2818-residue isoform; TEV cleavage (ENLYFQ/G) probably leaves a G at the N-terminus; also called CD domains; source: Tni-FNL insect cells (baculovirus), purified; not shown: His6, N-terminal, cleaved; MBP, N-terminal, cleaved
As to B2, in data set [1], the binding result is listed as “binds”.

B3: neurofibromin CDEF fragment (861–2818) (domain or fragment, human, UniProt P21359-2 861-2818, looked up)
chain: ATYSPPMGPVSERKGSMISVMSSEGNADTPVSKFMDRLLSLMVCNHEKVGLQIRTNVKDLVGLELSPALYPMLFNKLKNTISKFFDSQGQVLLTDTNTQFVEQTIAIMKNLLDNHTEGSSEHLGQASIETMMLNLVRYVRVLGNMVHAIQIKTKLCQLVEVMMARRDDLSFCQEMKFRNKMVEYLTDWVMGTSNQAADDDVKCLTRDLDQASMEAVVSLLAGLPLQPEEGDGVELMEAKSQLFLKYFTLFMNLLNDCSEVEDESAQTGGRKRGMSRRLASLRHCTVLAMSNLLNANVDSGLMHSIGLGYHKDLQTRATFMEVLTKILQQGTEFDTLAETVLADRFERLVELVTMMGDQGELPIAMALANVVPCSQWDELARVLVTLFDSRHLLYQLLWNMFSKEVELADSMQTLFRGNSLASKIMTFCFKVYGATYLQKLLDPLLRIVITSSDWQHVSFEVDPTRLEPSESLEENQRNLLQMTEKFFHAIISSSSEFPPQLRSVCHCLYQVVSQRFPQNSIGAVGSAMFLRFINPAIVSPYEAGILDKKPPPRIERGLKLMSKILQSIANHVLFTKEEHMRPFNDFVKSNFDAARRFFLDIASDCPTSDAVNHSLSFISDGNVLALHRLLWNNQEKIGQYLSSNRDHKAVGRRPFDKMATLLAYLGPPEHKPVADTHWSSLNLTSSKFEEFMTRHQVHEKEEFKALKTLSIFYQAGTSKAGNPIFYYVARRFKTGQINGDLLIYHVLLTLKPYYAKPYEIVVDLTHTGPSNRFKTDFLSKWFVVFPGFAYDNVSAVYIYNCNSWVREYTKYHERLLTGLKGSKRLVFIDCPGKLAEHIEHEQQKLPAATLALEEDLKVFHNALKLAHKDTKVSIKVGSTAVQVTSAERTKVLGQSVFLNDIYYASEIEEICLVDENQFTLTIANQGTPLTFMHQECEAIVQSIIHIRTRWELSQPDSIPQHTKIRPKDVPGTLLNIALLNLGSSDPSLRSAAYNLLCALTCTFNLKIEGQLLETSGLCIPANNTLFIVSISKTLAANEPHLTLEFLEECISGFSKSSIELKHLCLEYMTPWLSNLVRFCKHNDDAKRQRVTAILDKLITMTINEKQMYPSIQAKIWGSLGQITDLLDVVLDSFIKTSATGGLGSIKAEVMADTAVALASGNVKLVSSKVIGRMCKIIDKTCLSPTPTLEQHLMWDDIAILARYMLMLSFNNSLDVAAHLPYLFHVVTFLVATGPLSLRASTHGLVINIIHSLCTCSQLHFSEETKQVLRLSLTEFSLPKFYLLFGISKVKSAAVIAFRSSYRDRSFSPGSYERETFALTSLETVTEALLEIMEACMRDIPTCKWLDQWTELAQRFAFQYNPSLQPRALVVFGCISKRVSHGQIKQIIRILSKALESCLKGPDTYNSQVLIEATVIALTKLQPLLNKDSPLHKALFWVAVAVLQLDEVNLYSAGTALLEQNLHTLDSLRIFNDKSPEEVFMAIRNPLEWHCKQMDHFVGLNFNSNFNFALVGHLLKGYRHPSPAIVARTVRILHTLLTLVNKHRNCDKFEVNTQSVAYLAALLTVSEEVRSRCSLKHRKSLLLTDISMENVPMDTYPIHHGDPSYRTLKETQPWSSPKGSEGYLAATYPTVGQTSPRARKSMSLDMGQPSQANTKKLLGTRKSFDHLISDTKAPKRQEMESGITTPPKMRRVAETDYEMETQRISSSQQHPHLRKVSVSESNVLLDEEVLTDPKIQALLLTVLATLVKYTTDEFDQRILYEYLAEASVVFPKVFPVVHNLLDSKINTLLSLCQDPNLLNPIHGIVQSVVYHEESPPQYQTSYLQSFGFNGLWRFAGPFSKQTQIPDYAELIVKFLDALIDTYLPGIDEETSEESLLTPTSPYPPALQSQLSITANLNLSNSMTSLATSQHSPGIDKENVELSPTTGHCNSGRTRHGSASQVQKQRSAGSFKRNSIKKIV
notes: neurofibromin, human, NF1 isoform 2 (NM_000267.3); residues 861-2818; numbers count on: the 2818-residue isoform; TEV cleavage (ENLYFQ/G) probably leaves a G at the N-terminus; also called NF1-CDEF; NF1(861–2818); source: Tni-FNL insect cells (baculovirus), purified; not shown: His6, N-terminal, cleaved; MBP, N-terminal, cleaved
In the case of B3, in data set [2], the stoichiometry N (usually the number of molecules, sites or subunits per partner or assembly) came to 2.

B4: neurofibromin DEF fragment (1541–2818) (domain or fragment, human, UniProt P21359-2 1541-2818, looked up)
chain: LNLTSSKFEEFMTRHQVHEKEEFKALKTLSIFYQAGTSKAGNPIFYYVARRFKTGQINGDLLIYHVLLTLKPYYAKPYEIVVDLTHTGPSNRFKTDFLSKWFVVFPGFAYDNVSAVYIYNCNSWVREYTKYHERLLTGLKGSKRLVFIDCPGKLAEHIEHEQQKLPAATLALEEDLKVFHNALKLAHKDTKVSIKVGSTAVQVTSAERTKVLGQSVFLNDIYYASEIEEICLVDENQFTLTIANQGTPLTFMHQECEAIVQSIIHIRTRWELSQPDSIPQHTKIRPKDVPGTLLNIALLNLGSSDPSLRSAAYNLLCALTCTFNLKIEGQLLETSGLCIPANNTLFIVSISKTLAANEPHLTLEFLEECISGFSKSSIELKHLCLEYMTPWLSNLVRFCKHNDDAKRQRVTAILDKLITMTINEKQMYPSIQAKIWGSLGQITDLLDVVLDSFIKTSATGGLGSIKAEVMADTAVALASGNVKLVSSKVIGRMCKIIDKTCLSPTPTLEQHLMWDDIAILARYMLMLSFNNSLDVAAHLPYLFHVVTFLVATGPLSLRASTHGLVINIIHSLCTCSQLHFSEETKQVLRLSLTEFSLPKFYLLFGISKVKSAAVIAFRSSYRDRSFSPGSYERETFALTSLETVTEALLEIMEACMRDIPTCKWLDQWTELAQRFAFQYNPSLQPRALVVFGCISKRVSHGQIKQIIRILSKALESCLKGPDTYNSQVLIEATVIALTKLQPLLNKDSPLHKALFWVAVAVLQLDEVNLYSAGTALLEQNLHTLDSLRIFNDKSPEEVFMAIRNPLEWHCKQMDHFVGLNFNSNFNFALVGHLLKGYRHPSPAIVARTVRILHTLLTLVNKHRNCDKFEVNTQSVAYLAALLTVSEEVRSRCSLKHRKSLLLTDISMENVPMDTYPIHHGDPSYRTLKETQPWSSPKGSEGYLAATYPTVGQTSPRARKSMSLDMGQPSQANTKKLLGTRKSFDHLISDTKAPKRQEMESGITTPPKMRRVAETDYEMETQRISSSQQHPHLRKVSVSESNVLLDEEVLTDPKIQALLLTVLATLVKYTTDEFDQRILYEYLAEASVVFPKVFPVVHNLLDSKINTLLSLCQDPNLLNPIHGIVQSVVYHEESPPQYQTSYLQSFGFNGLWRFAGPFSKQTQIPDYAELIVKFLDALIDTYLPGIDEETSEESLLTPTSPYPPALQSQLSITANLNLSNSMTSLATSQHSPGIDKENVELSPTTGHCNSGRTRHGSASQVQKQRSAGSFKRNSIKKIV
notes: neurofibromin, human, NF1 isoform 2 (NM_000267.3); numbers count on: the 2818-residue isoform; TEV cleavage (ENLYFQ/G) probably leaves a G at the N-terminus; also called NF1-DEF; source: Tni-FNL insect cells (baculovirus), purified; not shown: His6, N-terminal, cleaved; MBP, N-terminal, cleaved
Regarding B4, the binding result in data set [3] is listed as “binds”.

For the origin of these results see article PMC6983858, “Biochemical and structural analyses reveal that the tumor suppressor neurofibromin (NF1) forms a high-affinity dimer” (The Journal of Biological Chemistry, 2019).
